Results reported in patent publication US20260209362A1 (VIB VZW, published 2026).

Experiments:
[1] = target: T1, biotinylated recombinant human IL-12Rβ2 (produced in-house) (human, UniProt Q99665 24-622, randomly biotinylated); experiment: ELISA, periplasmic extract on biotinylated human IL-12Rβ2; control streptavidin-coated blocked wells
T1 construct: also called hIL-12RB2; human IL-12RB2
T1 sequence: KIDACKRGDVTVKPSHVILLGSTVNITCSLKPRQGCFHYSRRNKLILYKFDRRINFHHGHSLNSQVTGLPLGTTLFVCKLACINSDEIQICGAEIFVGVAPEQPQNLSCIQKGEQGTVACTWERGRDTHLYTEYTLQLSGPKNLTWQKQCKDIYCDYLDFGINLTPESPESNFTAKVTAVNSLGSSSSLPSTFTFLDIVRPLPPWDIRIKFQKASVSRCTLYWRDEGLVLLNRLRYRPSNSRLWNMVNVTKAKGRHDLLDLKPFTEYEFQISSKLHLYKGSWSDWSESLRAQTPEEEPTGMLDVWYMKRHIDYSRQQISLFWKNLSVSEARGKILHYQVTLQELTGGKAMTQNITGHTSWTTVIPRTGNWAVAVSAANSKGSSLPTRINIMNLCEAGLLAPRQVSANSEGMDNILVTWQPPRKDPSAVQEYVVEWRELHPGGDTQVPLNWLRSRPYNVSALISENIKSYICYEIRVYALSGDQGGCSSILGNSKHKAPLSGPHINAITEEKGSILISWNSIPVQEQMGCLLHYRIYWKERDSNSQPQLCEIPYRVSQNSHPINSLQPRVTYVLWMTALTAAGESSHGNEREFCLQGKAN

[2] = target: T2, biotinylated recombinant mouse IL-12Rβ2 (produced in-house) (mouse, UniProt P97378 24-637, randomly biotinylated); experiment: ELISA, periplasmic extract on biotinylated mouse IL-12Rβ2; control streptavidin-coated blocked wells
T2 construct: also called mIL-12RB2; mouse IL-12RB2
T2 sequence: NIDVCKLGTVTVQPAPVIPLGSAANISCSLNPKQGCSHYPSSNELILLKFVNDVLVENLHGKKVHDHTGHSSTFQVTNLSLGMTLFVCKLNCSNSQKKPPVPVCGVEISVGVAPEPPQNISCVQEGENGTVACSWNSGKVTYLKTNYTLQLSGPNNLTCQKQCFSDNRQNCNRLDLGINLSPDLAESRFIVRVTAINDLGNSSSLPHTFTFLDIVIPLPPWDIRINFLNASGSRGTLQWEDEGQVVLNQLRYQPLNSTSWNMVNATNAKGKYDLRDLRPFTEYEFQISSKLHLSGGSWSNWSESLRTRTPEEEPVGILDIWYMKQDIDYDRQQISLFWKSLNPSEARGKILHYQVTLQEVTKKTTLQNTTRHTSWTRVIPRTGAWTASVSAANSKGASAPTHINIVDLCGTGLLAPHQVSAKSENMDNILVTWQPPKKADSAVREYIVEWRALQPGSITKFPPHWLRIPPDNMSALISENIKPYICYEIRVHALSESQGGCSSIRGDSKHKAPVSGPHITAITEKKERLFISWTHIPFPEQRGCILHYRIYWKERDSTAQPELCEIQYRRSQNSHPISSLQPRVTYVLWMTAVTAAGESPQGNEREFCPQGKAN

B1: anti-IL-12Rβ2 VHH clone 2CAM18 (VHH)
VHH: QVQLQESGGGLVQVGDSLKLSCVASGTTFSTHVMAWYRQAPGKQREWVASIDSAGTTNYKDAVKGRFTISRDNVKRTVYLQMNNLKPEDSAVYLCSIPSRNAWGQGTQVTVSS
notes: Tested as periplasmic extract; CDR3 group 45; also called 20475
ELISA binding hIL-12RB2/control [1]: 1.51 ratio to control
ELISA binding mIL-12RB2/control [2]: 3.22 ratio to control

B2: anti-IL-12Rβ2 VHH clone 2CAM56 (VHH)
VHH: QVQLQESGGGEVQAGGSLRLSCVASGRTFSVYTTGWFRQAPGKERELVAGMSGTRTYYADSVKGRFTISRDNAKNTVYLQMNSLKPDDTAVYYCAERRYGGPSLVWDEYDYRGQGTQVTVSS
notes: Tested as periplasmic extract; CDR3 group 28; also called 20490
ELISA binding hIL-12RB2/control [1]: 0.918 ratio to control
ELISA binding mIL-12RB2/control [2]: 5.21 ratio to control

B3: anti-IL-12Rβ2 VHH clone 2CAM67 (VHH)
VHH: QVQLQESGGGEVQAGGSLRLSCVASGRTFSVYTTGWFRQAPGKEREFVAGMSGTRTYYADSVKGRFTISRDNAKNTVYLQMNSLKPDDTAVYYCAERRYGGPSLVWDEYDYRGQGTQVTVSS
notes: Tested as periplasmic extract; CDR3 group 28; also called 20494
ELISA binding hIL-12RB2/control [1]: 0.87 ratio to control
ELISA binding mIL-12RB2/control [2]: 7.74 ratio to control

B4: anti-IL-12Rβ2 VHH clone 2CAM9 (VHH)
VHH: QVQLQESGGGLVQAGMSLRLSCAASGLTFSWYRMGWFRQAPGKEREFVAGWYGVLTQYRDSVKGRFTISRDDAKNTVYLQMNSLKPEDTAVYYCAASLGGNYRSYEYDYWGQGTQVTVSS
notes: Tested as periplasmic extract; CDR3 group 19
ELISA binding hIL-12RB2/control [1]: 1.09 ratio to control
ELISA binding mIL-12RB2/control [2]: 8.27 ratio to control

B5: anti-IL-12Rβ2 VHH clone 2CAM12 (VHH)
VHH: QVQLQESGGGLVQAGGSLRLSCAASGRTFSWYRMGWFRQAPGKEREFVAGWYGVLTQYRDSVKGRFTISRDDAKNTVYLQMNSLKPEDTAVYYCAASLGGNYRSYEYDYWGQGTQVTVSS
notes: as for B4
ELISA binding hIL-12RB2/control [1]: 0.9 ratio to control
ELISA binding mIL-12RB2/control [2]: 3.38 ratio to control

B6: anti-IL-12Rβ2 VHH clone 2CRMS29 (VHH)
VHH: QVQLQESGGGLVQAGGPLRLSCAASGRTFSGSAMGWFRQAPGKEREFVAAITWVGGFTYYADSVKGRFTISRDNAKNTVYLQMNNLSPEDTAVYSCAAQAYHKSGYYYPPLYDYWGQGTQVTVSS
notes: Tested as periplasmic extract; CDR3 group 52; also called 20521
ELISA binding hIL-12RB2/control [1]: 1.05 ratio to control
ELISA binding mIL-12RB2/control [2]: 5.85 ratio to control

B7: anti-IL-12Rβ2 VHH clone 2CAMS29 (VHH)
VHH: QVQLQESGGGLVQAGGSLRLSCAASGLTSSTYVIGWFRQAPGKEREFVAAIMLSGGTTIYADSLKGRCTIYKDNAKNTVYLQMNSLKLEDTAVYYCASGLIYRYSDFPRSQKYNFWGQGTQVTVSS
notes: Tested as periplasmic extract; CDR3 group 54; also called 20534
ELISA binding hIL-12RB2/control [1]: 1.06 ratio to control
ELISA binding mIL-12RB2/control [2]: 6.24 ratio to control

B8: anti-IL-12Rβ2 VHH clone 2CAM39 (VHH)
VHH: QVQLQESGGGLVQAGGSLRLSCAASGRTFSTYAMGWFRQAPGKEREFVAAISWSGGSTYYADSVKGRFTISRDNAKNTGYLQMNSLKPEDTAVYVCAADAEDPILYGSSWNNRRKEYDYWGQGTQVTVSS
notes: Tested as periplasmic extract; CDR3 group 46; also called 20482
ELISA binding hIL-12RB2/control [1]: 1 ratio to control
ELISA binding mIL-12RB2/control [2]: 8.02 ratio to control

B9: anti-IL-12Rβ2 VHH clone 3CAMS63 (VHH)
VHH: QVQLQESGGGLVQAGGSLRLSCAASGRTFSNYAMGWFRQAPGKEREFVAAINRSGTTLYVDSVKGRFTISRDNAKNTVALQMNSLKPEDTAVYYCVAGMPFSYSDYPRDSKYDYWGQGTQVTVSS
notes: Tested as periplasmic extract; CDR3 group 26; also called 20552
ELISA binding hIL-12RB2/control [1]: 1.01 ratio to control
ELISA binding mIL-12RB2/control [2]: 9.78 ratio to control

B10: anti-IL-12Rβ2 VHH clone 2CAM47 (VHH)
VHH: QVQLQESGGGVVQEGASLRLSCAASGRNLSTYAMGWIRQAPGKEREFVAAISWAGSTTYYADSVKGRFIISRDNAKNTLNLQMNSLKPEDTAVYYCAAPPYVTTTYYATPPSDIRDYHYWGQGTQVTVSS
notes: Tested as periplasmic extract; CDR3 group 27; also called 20487
ELISA binding hIL-12RB2/control [1]: 0.969 ratio to control
ELISA binding mIL-12RB2/control [2]: 4.91 ratio to control

B11: anti-IL-12Rβ2 VHH clone 3CAM11 (VHH)
VHH: QVQLQESGGGLVQAGGSLRLSCAASGRNLSTYAMGWIRQAPGKEREFVAAISWAGSTTYYADSVKGRFIISRDNAKNTLNLQMNSLKPEDTAVYYCAAPPYVTTTYYATPPSDIRDYHYWGQGTQVTVSS
notes: Tested as periplasmic extract; CDR3 group 27; also called 20508
ELISA binding hIL-12RB2/control [1]: 1.31 ratio to control
ELISA binding mIL-12RB2/control [2]: 6.6 ratio to control

B12: anti-IL-12Rβ2 VHH clone 2CRM16 (VHH)
VHH: QVQLQESGGGLVQAGGSLRLSCAASGRTFSNYRMGWFRQAPGKEREFVAGINWDGGHTYYTDSVKGRFTISRDNAKNTVYLQMNSLKPEDTAVYQCAVRVREYGSSRYEDQFDYWGQGTQVTVSS
notes: Tested as periplasmic extract; CDR3 group 18
ELISA binding hIL-12RB2/control [1]: 0.947 ratio to control
ELISA binding mIL-12RB2/control [2]: 4.12 ratio to control

B13: anti-IL-12Rβ2 VHH clone 2CRM42 (VHH)
VHH: QVQLQESGGGLVQPGESLRLSCQASGRTFSNYRMGWFRQAPGKEREFVAGINWDGGHTYYTDSVKGRFTISRDNAKNTVYLQMNSLKPEDTAVYQCAVRVREYGSSRYEDQFDYWGQGTQVTVSS
notes: Tested as periplasmic extract; CDR3 group 18; also called 20449
ELISA binding hIL-12RB2/control [1]: 0.942 ratio to control
ELISA binding mIL-12RB2/control [2]: 6.09 ratio to control

B14: anti-IL-12Rβ2 VHH clone 3CRM95 (VHH)
VHH: QVQLQESGGGLVQAGDFLRLSCVFSGGTFGDYSMGWFRQAPGKEREFVAAIRWSGDSTQYAEAVKGRFTISRDNAKSTVYLQMSSLKPEDTAVYYCAADPSYYIGPNHTPSRYRDWGQGTQVTVSS
notes: Tested as periplasmic extract; CDR3 group 44; also called 20465
ELISA binding hIL-12RB2/control [1]: 1.41 ratio to control
ELISA binding mIL-12RB2/control [2]: 6.72 ratio to control

B15: anti-IL-12Rβ2 VHH clone 2CAM45 (VHH)
VHH: QVQLQESGGGLVQAGGSLRLSCAASGFTFDDYAIGWFRQAPGKEREGISCISSSDYGTYYAGSVKGRFTISSDNAKNTVYLQMNSLKPEDTAVYYCAAEAISEYDCLGINYGMDYWGKGTQVTVSS
notes: Tested as periplasmic extract; CDR3 group 47; also called 20485
ELISA binding hIL-12RB2/control [1]: 0.974 ratio to control
ELISA binding mIL-12RB2/control [2]: 10.4 ratio to control

B16: anti-IL-12Rβ2 VHH clone 3CAM1 (VHH)
VHH: QVQLQESGGGLVQAGGSLRLSCAASGRTFGSHRMGWFRQAPGQEREFVAAIAWRGGTQYYTDSVKGRFTISRDNANNTVYLQMNSLKPEDAAVYYCVAGEGSSWGDITDPRRYVFWGQGTQVTVSS
notes: Tested as periplasmic extract; CDR3 group 48
ELISA binding hIL-12RB2/control [1]: 1.2 ratio to control
ELISA binding mIL-12RB2/control [2]: 3.3 ratio to control

B17: anti-IL-12Rβ2 VHH clone 2CRM28 (VHH)
VHH: QVQLQESGGGLVQPGGSLRLSCAASGRAWNEYNMGWFRQAPGKEREFVALIWWSSGNTYYADSVKGRFTISRDKVKNTVYLQMNSLKPEDTAVYYCAAGPTFNKYEYWGQGTQVTVSS
notes: Tested as periplasmic extract; CDR3 group 40
ELISA binding hIL-12RB2/control [1]: 1 ratio to control
ELISA binding mIL-12RB2/control [2]: 13.5 ratio to control

B18: anti-IL-12Rβ2 VHH clone 3CAM10 (VHH)
VHH: QVQLQESGGGLVQAGGSLRLSCAASGRTFSDYPMAWFRQAPGKEREFVAGISNGGTAYYADSVKGRFTISRDNTRNTVYLQMNRLKVEDTAVYYCAAVHLLSNLRGADPHEADYWGQGTQVTVSS
notes: Tested as periplasmic extract; CDR3 group 25; also called 20507
ELISA binding hIL-12RB2/control [1]: 1.14 ratio to control
ELISA binding mIL-12RB2/control [2]: 40.9 ratio to control

B19: anti-IL-12Rβ2 VHH clone 2CAMS52 (VHH)
VHH: QVQLQESGGGLVQPGASLRLSCATSGPTLSTYAMGWFRQAPGKEREVVATISWSGGRVTYVDSVKGRFTISRDNAKNTAYLQMNRLRPDDTAVYTCAARESDYGAYDYWGQGTQVTVSS
notes: Tested as periplasmic extract; CDR3 group 55; also called 20535
ELISA binding hIL-12RB2/control [1]: 0.969 ratio to control
ELISA binding mIL-12RB2/control [2]: 6.41 ratio to control

B20: anti-IL-12Rβ2 VHH clone 3CAM65 (VHH)
VHH: QVQLQESGGGLVQAGGSLRLSCAPSGRTFTTYVMGWFRQAPGKEREFVAHISWSGGRTYYADSVKGRFTISRDNAKNTSYLQMNSLKPEDTAVYYCAAARSDAVRIGYAEGYEYWGQGTQVTVSS
notes: Tested as periplasmic extract; CDR3 group 49; also called 20513
ELISA binding hIL-12RB2/control [1]: 1.25 ratio to control
ELISA binding mIL-12RB2/control [2]: 5.98 ratio to control

B21: anti-IL-12Rβ2 VHH clone 2CRM40 (VHH)
VHH: QVQLQESGGGLVQTGGSLRLSCAASGRTYAMAWFRQAPGKEREFAAVIIGGDRTYYANSVKDRFTISRDNAKETVYLQMNNLKPEDTAVYYCAANRRLYNSGRGYSQSEYEYWGQGTQVTVSS
notes: Tested as periplasmic extract; CDR3 group 24; also called 20448
ELISA binding hIL-12RB2/control [1]: 0.993 ratio to control
ELISA binding mIL-12RB2/control [2]: 5.86 ratio to control
